Read-outs that look alike come from different tables or passages of the source.

Test [1] concerns the target Mycobacterium tuberculosis DnaK, wild-type, full-length (M. tuberculosis) (UniProt P9WMJ9).
Test [2] shares this target. This is another data set of the same source.

In the case of “Pz-Val-Val-Pro-photoLeu-OMe (7) (peptide)”, the IC50 in DnaK-DnaJ2-GrpE ATPase dose-response assay in test [1] was determined as 52.5 µM. For Pz-Val-Val-Pro-Leu-OH (2) (peptide), in test [2], the IC50 in DnaK-DnaJ2-GrpE ATPase dose-response assay came to 192 µM.

Values taken from paper PMC9124243.
